Where two headings read alike, the source gives them in different places.
Legend:
glucose metabolism = assay type: in vivo, dog; conditions: dogs, estimate (90% CI)
[1] = dog, in vivo
[2] = dog, in vivo, po
[3] = dog, in vivo; remark: listed apart in the source
[4] = in vivo; cited from earlier work

Q: With insulin tregopil as the substance, how does the “Mean difference (human insulin-tregopil): GIR AUC0-120 min” value (glucose metabolism; intraportal 3.6 pmol/kg/min) read?
A: -24.1 mg/kg

Q: And the “Mean difference (human insulin-tregopil): NHGB, last 30 min period 1” value (glucose metabolism; intraportal 3.6 pmol/kg/min)?
A: 0.53 mg/kg/min

Q: What about the “Mean difference (human insulin-tregopil): GIR AUC120-240 min” value (glucose metabolism; intraportal 12.0 pmol/kg/min) of the same substance?
A: -74 mg/kg

Q: And the “Mean difference (human insulin-tregopil): NHGB, last 30 min period 2” value (glucose metabolism; intraportal 12.0 pmol/kg/min)?
A: 0.30 mg/kg/min

Q: And the “Mean difference (human insulin-tregopil): non-hepatic glucose uptake, last 30 min period 2” value (glucose metabolism; intraportal 12.0 pmol/kg/min)?
A: -1.6 mg/kg/min

Q: What about the “Mean difference (human insulin-tregopil): ΔNHGB, period 1 to period 2” value (glucose metabolism; intraportal 3.6 then 12.0 pmol/kg/min) of the same substance?
A: 0.2 mg/kg/min

Q: And the “Fraction extracted on first-pass by the liver” value [1]?
A: one-third

Q: What about the “Cmax of first dose compared with second dose” value [2] of the same substance?
A: 117%

Q: What about the “Insulin AUC0–120 of first dose compared with second dose” value [2] of the same substance?
A: 118%

Q: What about the “Mean Cmax of first dose compared with second dose” value [2] of the same substance?
A: 88%

Q: What about the tmax [2] of the same substance?
A: 20 min

Q: And the Median tmax [3]?
A: 20 min

Q: And the Off-times (dog, in vivo)?
A: ≤ 120 min

Q: What about the tmax (dog, in vivo) of the same substance?
A: ≤ 20 min

Q: And the “Duration of PD effect after a dose” value (dogs, oral dose, statement in discussion)?
A: 90 min

Q: What about the “Time to peak concentration (tmax)” value [4] of the same substance?
A: 30 min

Reference: PMC6281755 (Diabetes, obesity & metabolism, 2018)
